Consider 1 substance from article PMC6996649, “Rational Engineered C-Acyltransferase Transforms Sterically Demanding Acyl Donors” (ACS Catalysis, 2019).

What all share (type): biochemical, Pseudomonas protegens
In series [1] the test system is T1, CC(=O)c1c(O)cc(O)cc1O.
T1 construct: PhlABC multi-subunit acyltransferase from codon-harmonized construct, recombinant in E. coli, purified enzyme; with 2,4-diacetylphloroglucinol biosynthesis acyltransferase subunit PhlA; 2,4-diacetylphloroglucinol biosynthesis acyltransferase subunit PhlB
Briefly: purified protein. The following applies: disproportionation to DAPG, 100 mM potassium phosphate pH 7.5, 35 °C.

The subject of series [2] is T2, CCCC(=O)c1c(O)cc(O)cc1O.
T2 construct: PhlABC multi-subunit acyltransferase from codon-harmonized construct, recombinant in E. coli, purified enzyme; with 2,4-diacetylphloroglucinol biosynthesis acyltransferase subunit PhlA; 2,4-diacetylphloroglucinol biosynthesis acyltransferase subunit PhlB
Briefly: purified protein. The following applies: disproportionation to 3a (DBPG), 100 mM potassium phosphate pH 7.5, 35 °C.

The subject of series [3] is T3, CCCC(=O)Oc1ccccc1.
T3 construct: PhlABC multi-subunit acyltransferase from codon-harmonized construct, recombinant in E. coli, purified enzyme; with 2,4-diacetylphloroglucinol biosynthesis acyltransferase subunit PhlA; 2,4-diacetylphloroglucinol biosynthesis acyltransferase subunit PhlB
Briefly: HPLC assay of resorcinol acylation. The following applies: 10 mM resorcinol as acceptor, 100 mM imidazole, potassium phosphate pH 7.5, 35 °C. The text has this: (§1) HPLC assay of resorcinol acylation on PpATaseCH

Series [4] concerns T4, COCC(=O)Oc1ccccc1.
T4 construct: PhlABC multi-subunit acyltransferase from codon-harmonized construct, recombinant in E. coli, purified enzyme; with 2,4-diacetylphloroglucinol biosynthesis acyltransferase subunit PhlA; 2,4-diacetylphloroglucinol biosynthesis acyltransferase subunit PhlB
Description: HPLC assay of resorcinol acylation. As to conditions: 10 mM resorcinol as acceptor, 100 mM imidazole, potassium phosphate pH 7.5, 35 °C.
Source text: as §1

In general, Km refers to the concentration of substrate that gives half-maximal velocity. The Vmax is the rate approached at saturating substrate. In general, kcat refers to the maximal rate divided by the concentration of active sites. What is called kcat/Km is the second-order rate constant that governs catalysis at low substrate concentration. For the substance “PpATaseCH (Pseudomonas protegens Pf-5; F148V)”, the Michaelis constant (Km) in series [1] is 240 ± 90 µM; in series [2], 540 ± 70 µM; in series [3], 3200 ± 100 µM; in series [4], 5000 ± 1000 µM. For the same substance, the maximal velocity (Vmax) worked out at 820 µM/min in series [1], 620 µM/min in series [2], 40 µM/min in series [3] and 580 µM/min in series [4]. The kcat was determined as 7.2 ± 1.9 s⁻¹ in series [1], 5.3 ± 0.6 s⁻¹ in series [2], 0.012 ± 0.002 s⁻¹ in series [3] and 0.188 ± 0.016 s⁻¹ in series [4]. The specificity constant (kcat/Km) turned out to be 31000 ± 4000 M⁻¹ s⁻¹ in series [1], 9900 ± 800 M⁻¹ s⁻¹ in series [2], 3.7 ± 0.6 M⁻¹ s⁻¹ in series [3] and 38.7 ± 8.5 M⁻¹ s⁻¹ in series [4].
